Data taken from patent US20110104194A1 (NEW YORK UNIVERSITY, published 2011).

Assays:
elastin (human lung) = biological target: T1, elastin (human lung) (human, UniProt P15502 27-786); assay: western blot overlay of rPTRP with ECM protein; same result by ELISA
T1 sequence: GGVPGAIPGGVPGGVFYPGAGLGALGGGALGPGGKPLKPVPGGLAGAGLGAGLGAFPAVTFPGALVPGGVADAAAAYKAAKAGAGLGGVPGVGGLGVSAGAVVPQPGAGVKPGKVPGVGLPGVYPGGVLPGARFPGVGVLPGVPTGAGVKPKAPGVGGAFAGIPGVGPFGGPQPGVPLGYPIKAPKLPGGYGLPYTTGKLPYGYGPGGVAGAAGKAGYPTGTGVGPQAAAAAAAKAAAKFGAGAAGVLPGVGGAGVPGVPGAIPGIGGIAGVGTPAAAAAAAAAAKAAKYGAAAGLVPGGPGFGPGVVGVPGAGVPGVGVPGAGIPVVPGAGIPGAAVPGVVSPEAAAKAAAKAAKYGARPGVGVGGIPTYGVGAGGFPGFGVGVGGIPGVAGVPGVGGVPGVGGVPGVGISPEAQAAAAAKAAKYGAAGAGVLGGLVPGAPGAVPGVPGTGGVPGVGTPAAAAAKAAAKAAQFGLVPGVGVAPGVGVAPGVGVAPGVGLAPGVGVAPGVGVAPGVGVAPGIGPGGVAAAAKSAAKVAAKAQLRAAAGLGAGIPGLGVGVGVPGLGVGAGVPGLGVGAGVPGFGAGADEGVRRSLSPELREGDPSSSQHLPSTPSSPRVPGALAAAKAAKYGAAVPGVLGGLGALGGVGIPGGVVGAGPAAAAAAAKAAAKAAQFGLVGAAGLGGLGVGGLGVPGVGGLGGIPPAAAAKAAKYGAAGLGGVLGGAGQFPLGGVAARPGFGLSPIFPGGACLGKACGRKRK

human collagen I = biological target: T2, human collagen I (human, UniProt P02452 162-1218; P08123 80-1119); assay: as above
T2 construct: Chemicon; also called Col I

[1] = biological target: T3, collagen II (human cartilage) (human, UniProt P02458 182-1241); assay: as above
T3 construct: Chemicon; also called Col II

[2] = biological target: T4, collagen III (human placenta) (human, UniProt P02461 154-1221); assay: as above
T4 construct: Chemicon; also called Col III
T4 sequence: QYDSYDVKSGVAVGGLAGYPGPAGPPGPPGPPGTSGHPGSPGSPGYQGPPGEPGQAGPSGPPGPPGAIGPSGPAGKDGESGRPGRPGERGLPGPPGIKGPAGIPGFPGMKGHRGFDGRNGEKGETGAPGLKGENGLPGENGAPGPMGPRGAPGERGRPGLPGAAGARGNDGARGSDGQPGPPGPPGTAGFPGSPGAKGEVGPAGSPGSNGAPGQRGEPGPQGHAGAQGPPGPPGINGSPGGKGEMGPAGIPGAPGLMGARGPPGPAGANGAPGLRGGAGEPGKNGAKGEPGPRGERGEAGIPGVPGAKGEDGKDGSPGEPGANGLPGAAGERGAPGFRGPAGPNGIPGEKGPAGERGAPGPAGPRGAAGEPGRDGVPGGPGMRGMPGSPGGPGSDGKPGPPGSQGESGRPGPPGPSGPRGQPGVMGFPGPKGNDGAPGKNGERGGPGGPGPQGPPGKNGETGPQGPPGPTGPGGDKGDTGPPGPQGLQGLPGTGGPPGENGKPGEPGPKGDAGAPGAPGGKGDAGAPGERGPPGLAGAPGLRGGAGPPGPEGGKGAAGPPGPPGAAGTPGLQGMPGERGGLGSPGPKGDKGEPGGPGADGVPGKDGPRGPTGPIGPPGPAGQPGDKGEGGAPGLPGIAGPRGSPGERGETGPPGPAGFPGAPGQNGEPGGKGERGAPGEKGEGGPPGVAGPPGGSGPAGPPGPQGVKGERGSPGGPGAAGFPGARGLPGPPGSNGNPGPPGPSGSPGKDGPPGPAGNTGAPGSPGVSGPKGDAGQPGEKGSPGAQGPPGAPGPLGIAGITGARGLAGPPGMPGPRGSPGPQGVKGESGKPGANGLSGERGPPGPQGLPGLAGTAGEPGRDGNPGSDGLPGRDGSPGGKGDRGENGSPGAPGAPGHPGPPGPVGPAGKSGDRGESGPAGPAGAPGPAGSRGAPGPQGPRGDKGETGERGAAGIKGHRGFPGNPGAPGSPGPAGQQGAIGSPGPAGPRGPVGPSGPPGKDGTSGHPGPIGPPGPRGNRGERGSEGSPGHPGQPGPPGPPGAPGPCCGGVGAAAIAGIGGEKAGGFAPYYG

[3] = biological target: T5, collagen IV (human placenta) (human, UniProt P02462 28-1669; P08572 26-1712); assay: as above
T5 construct: Chemicon; also called Col IV

[4] = biological target: vitronectin (human plasma) (human, UniProt P04004 20-478); assay: as above
[5] = biological target: T6, fibrinogen (human plasma) (human, UniProt P02671 20-629; P02675 31-491; P02679 27-437); assay: as above
T6 sequence 1: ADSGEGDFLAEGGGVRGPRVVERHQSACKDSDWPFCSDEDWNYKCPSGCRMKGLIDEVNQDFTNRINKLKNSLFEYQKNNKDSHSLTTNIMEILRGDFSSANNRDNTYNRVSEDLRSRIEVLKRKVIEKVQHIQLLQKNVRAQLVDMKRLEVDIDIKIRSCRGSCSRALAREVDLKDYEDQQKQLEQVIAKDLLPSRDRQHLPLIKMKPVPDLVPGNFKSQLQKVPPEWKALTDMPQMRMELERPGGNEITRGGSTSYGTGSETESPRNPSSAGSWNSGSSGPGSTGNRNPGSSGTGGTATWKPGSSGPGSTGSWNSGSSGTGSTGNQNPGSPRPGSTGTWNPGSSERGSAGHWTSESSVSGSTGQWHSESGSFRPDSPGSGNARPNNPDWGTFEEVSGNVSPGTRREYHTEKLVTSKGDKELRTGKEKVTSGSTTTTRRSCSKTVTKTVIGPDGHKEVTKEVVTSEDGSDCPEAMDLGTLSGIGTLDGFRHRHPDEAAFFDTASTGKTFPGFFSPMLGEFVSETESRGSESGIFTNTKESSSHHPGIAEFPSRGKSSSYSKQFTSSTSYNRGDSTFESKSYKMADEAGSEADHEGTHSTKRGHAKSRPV
T6 sequence 2: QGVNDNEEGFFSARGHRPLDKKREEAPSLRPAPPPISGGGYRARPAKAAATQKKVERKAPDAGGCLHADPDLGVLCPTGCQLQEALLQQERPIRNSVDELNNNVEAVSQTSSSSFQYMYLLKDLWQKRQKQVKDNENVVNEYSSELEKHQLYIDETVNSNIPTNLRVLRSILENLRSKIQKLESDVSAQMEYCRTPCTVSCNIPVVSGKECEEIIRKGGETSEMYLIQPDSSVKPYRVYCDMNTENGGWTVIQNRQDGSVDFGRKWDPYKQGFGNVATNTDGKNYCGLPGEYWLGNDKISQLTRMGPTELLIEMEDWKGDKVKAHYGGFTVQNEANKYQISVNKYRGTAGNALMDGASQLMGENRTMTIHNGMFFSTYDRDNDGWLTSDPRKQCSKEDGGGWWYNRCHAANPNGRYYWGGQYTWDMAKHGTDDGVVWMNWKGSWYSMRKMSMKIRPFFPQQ
T6 sequence 3: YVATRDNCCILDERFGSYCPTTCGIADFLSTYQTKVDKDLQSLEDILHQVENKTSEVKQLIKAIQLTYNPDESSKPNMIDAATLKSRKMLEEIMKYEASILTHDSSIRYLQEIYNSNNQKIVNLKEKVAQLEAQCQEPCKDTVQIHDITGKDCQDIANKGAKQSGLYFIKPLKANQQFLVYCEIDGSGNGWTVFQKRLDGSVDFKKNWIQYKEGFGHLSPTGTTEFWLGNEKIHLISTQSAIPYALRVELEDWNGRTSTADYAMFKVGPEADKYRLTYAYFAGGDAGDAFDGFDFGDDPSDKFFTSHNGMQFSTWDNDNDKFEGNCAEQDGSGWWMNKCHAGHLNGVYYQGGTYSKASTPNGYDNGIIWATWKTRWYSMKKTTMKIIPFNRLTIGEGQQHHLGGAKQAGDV

[6] = biological target: Thrombospondin (human platelet) (human, UniProt P07996 19-1170); assay: western blot overlay: rPTRP on the blot, ECM protein 5 µg/ml, anti-ECM antibody
Chain of Thrombospondin (human platelet) (P07996 19-1170 limits assumed): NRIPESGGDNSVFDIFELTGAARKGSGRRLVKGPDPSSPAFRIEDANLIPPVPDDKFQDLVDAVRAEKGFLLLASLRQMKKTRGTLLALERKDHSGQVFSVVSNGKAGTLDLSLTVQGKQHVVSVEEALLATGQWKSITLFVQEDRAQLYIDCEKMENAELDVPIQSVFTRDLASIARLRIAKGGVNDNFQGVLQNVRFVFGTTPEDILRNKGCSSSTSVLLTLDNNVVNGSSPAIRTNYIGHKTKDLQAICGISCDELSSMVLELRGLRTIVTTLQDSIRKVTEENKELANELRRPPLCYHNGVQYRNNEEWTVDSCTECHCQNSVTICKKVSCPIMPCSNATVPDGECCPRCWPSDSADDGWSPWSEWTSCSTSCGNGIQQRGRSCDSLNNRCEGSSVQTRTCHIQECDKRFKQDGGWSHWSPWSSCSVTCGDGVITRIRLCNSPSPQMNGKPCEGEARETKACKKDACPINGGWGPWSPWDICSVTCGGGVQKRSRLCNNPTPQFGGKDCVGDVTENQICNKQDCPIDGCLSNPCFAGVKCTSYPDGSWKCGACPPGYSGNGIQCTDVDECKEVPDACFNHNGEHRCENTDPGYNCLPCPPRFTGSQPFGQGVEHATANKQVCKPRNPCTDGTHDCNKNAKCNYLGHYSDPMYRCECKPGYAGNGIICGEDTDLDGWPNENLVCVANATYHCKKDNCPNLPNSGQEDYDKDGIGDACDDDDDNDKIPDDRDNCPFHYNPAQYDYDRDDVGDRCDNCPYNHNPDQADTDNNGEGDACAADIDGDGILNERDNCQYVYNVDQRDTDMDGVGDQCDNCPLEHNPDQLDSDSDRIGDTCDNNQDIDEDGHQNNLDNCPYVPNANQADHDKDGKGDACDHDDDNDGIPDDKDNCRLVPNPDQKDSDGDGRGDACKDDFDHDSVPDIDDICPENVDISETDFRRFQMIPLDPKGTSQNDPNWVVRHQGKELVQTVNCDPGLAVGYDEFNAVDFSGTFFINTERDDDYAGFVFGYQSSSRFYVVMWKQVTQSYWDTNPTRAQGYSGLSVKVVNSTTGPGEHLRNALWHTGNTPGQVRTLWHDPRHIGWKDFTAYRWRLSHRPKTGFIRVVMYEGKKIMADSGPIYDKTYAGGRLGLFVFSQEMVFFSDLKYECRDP

T5 sequence (P02462 28-1669, chain 1 of 2): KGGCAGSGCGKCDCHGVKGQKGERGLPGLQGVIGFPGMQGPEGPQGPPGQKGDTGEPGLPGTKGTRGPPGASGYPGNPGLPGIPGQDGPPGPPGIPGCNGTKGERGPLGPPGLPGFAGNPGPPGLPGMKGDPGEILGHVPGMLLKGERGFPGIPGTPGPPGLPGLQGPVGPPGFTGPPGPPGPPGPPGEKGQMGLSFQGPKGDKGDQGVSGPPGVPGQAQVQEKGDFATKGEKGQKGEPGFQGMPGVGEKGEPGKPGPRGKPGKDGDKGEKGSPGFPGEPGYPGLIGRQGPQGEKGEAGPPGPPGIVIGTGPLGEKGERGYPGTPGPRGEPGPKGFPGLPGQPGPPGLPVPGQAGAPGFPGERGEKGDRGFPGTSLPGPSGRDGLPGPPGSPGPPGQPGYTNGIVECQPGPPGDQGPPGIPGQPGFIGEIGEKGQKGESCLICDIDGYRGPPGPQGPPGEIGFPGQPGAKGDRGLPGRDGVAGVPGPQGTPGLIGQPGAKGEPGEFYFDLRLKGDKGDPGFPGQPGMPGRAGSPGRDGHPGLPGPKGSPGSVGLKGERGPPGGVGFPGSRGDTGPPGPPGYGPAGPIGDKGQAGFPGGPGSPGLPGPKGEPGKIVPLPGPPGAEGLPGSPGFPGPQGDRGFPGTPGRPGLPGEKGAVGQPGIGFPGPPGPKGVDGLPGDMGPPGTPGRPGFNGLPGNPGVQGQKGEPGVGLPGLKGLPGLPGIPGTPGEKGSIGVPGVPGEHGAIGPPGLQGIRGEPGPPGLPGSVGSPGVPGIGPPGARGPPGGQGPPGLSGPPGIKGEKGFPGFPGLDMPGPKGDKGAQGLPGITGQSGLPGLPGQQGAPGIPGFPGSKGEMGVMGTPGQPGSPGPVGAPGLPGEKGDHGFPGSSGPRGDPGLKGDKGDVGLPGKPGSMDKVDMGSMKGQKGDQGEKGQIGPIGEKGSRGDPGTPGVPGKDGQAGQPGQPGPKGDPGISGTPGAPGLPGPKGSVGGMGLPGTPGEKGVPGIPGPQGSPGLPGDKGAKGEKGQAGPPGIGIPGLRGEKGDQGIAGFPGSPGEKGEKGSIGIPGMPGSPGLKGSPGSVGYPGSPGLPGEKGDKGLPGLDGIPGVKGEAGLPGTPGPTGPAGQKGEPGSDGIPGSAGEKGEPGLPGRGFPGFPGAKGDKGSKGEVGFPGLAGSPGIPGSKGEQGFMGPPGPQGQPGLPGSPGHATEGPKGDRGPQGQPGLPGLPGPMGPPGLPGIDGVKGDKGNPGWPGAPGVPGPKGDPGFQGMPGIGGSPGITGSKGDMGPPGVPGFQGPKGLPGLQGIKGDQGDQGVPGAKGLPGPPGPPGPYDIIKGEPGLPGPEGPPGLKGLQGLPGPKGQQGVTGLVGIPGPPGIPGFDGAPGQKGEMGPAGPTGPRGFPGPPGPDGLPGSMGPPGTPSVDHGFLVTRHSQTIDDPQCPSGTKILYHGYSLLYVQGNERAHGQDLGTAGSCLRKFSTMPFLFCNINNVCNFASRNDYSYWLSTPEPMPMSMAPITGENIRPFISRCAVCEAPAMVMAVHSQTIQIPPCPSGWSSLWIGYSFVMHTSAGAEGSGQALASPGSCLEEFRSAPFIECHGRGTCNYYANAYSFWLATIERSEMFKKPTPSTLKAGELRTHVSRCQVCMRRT
T5 sequence (P08572 26-1712, chain 2 of 2): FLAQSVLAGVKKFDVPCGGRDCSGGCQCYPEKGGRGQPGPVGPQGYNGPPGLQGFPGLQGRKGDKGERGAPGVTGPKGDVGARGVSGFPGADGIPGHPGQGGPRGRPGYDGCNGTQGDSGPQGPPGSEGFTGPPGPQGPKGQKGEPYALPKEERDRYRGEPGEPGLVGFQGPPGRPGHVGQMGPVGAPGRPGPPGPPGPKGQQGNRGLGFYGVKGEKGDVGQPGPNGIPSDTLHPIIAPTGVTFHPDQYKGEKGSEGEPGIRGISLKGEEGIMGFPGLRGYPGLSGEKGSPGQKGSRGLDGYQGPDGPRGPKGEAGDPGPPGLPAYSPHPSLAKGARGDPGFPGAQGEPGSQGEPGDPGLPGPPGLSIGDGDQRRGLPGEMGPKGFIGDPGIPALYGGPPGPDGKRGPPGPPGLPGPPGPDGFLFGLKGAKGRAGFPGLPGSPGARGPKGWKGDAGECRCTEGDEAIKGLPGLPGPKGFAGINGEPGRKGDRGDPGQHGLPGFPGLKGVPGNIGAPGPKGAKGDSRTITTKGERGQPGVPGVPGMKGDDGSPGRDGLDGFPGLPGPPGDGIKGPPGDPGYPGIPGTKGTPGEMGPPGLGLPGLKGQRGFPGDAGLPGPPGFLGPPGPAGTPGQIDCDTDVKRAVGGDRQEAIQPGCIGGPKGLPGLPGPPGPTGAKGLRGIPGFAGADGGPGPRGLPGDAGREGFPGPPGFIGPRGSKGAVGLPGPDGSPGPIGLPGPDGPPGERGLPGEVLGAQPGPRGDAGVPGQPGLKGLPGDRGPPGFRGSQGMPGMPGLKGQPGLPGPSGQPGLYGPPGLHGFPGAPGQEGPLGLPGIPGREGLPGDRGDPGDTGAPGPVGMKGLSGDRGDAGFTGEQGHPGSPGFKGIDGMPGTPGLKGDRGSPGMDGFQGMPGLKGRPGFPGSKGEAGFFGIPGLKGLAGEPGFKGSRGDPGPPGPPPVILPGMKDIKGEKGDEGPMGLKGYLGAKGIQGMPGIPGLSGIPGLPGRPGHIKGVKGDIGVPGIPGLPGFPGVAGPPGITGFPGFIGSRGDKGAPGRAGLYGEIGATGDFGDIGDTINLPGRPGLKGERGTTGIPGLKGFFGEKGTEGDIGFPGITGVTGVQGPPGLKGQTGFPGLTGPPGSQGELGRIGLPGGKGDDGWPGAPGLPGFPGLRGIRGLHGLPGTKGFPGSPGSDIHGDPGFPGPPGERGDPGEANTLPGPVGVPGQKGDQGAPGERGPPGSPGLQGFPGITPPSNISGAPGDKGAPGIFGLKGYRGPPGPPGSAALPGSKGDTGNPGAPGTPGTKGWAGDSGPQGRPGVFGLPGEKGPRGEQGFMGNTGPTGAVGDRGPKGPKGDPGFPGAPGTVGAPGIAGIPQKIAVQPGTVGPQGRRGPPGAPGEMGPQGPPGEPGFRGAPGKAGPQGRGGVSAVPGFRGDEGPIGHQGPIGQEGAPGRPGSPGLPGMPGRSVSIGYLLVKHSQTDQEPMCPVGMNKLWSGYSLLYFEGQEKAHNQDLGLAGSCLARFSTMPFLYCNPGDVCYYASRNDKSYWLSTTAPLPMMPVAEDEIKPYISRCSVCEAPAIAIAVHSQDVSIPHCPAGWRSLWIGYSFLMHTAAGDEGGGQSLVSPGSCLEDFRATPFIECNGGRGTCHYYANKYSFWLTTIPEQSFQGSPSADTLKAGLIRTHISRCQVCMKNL
Chain of vitronectin (human plasma) (P04004 20-478 limits assumed): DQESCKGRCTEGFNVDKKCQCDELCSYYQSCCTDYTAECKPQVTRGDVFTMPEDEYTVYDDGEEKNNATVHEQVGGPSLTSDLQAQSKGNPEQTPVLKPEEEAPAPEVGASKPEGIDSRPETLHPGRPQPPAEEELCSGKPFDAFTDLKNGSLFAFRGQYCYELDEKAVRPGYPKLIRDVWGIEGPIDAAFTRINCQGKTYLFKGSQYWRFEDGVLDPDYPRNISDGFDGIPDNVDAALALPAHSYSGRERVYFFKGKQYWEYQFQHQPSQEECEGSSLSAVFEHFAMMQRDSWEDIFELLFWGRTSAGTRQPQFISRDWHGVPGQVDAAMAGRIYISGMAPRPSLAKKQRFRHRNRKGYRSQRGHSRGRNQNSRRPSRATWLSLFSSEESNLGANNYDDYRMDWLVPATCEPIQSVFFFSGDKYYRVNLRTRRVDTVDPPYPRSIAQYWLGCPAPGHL

B1: purified recombinant PTRP (rPTRP), GST tag cleaved (other)
chain: MDVALGVAVTDRVARLALVDSAAPGTVIDQFVLDVAEHPVEVLTETVVGTDRSLAGENHRLVATRLCWPDQAKADELQHALQDSGVHDVAVISEAQAATALVGAAHAGSAVLLVGDETATLSVVGDPDAPPTMVAVAPVAGADATSTVDTLMARLGDQALAPGDVFLVGRSAEHTTVLADQLRAASTMRVQTPDDPTFALARGAAMAAGAATMAHPALVADATTSLPRAEAGQSGSEGEQLAYSQASDYELLPVDEYEEHDEYGAAADRSAPLSRRSLLIGNAVVAFAVIGFASLAVAVAVTIRPTAASKPVEGHQNAQPGKFMPLLPTQQQAPVPPPPPDDPTAGFQGGTIPAVQNVVPRPGTSPGVGGTPASPAPEAPAVPGVVPAPVPIPVPIIIPPFPGWQPGMPTIPTAPPTTPVTTSATTPPTTPPTTPVTTPPTTPPTTPVTTPPTTPPTTPVTTPPTTVAPTTVAPTTVAPTTVAPTTVAPATATPTTVAPQPTQQPTQQPTQQMPTQQQTVAPQTVAPAPQPPSGGRNGSGGGDLFGGF
notes: also called Proline-Threonine Repetitive Protein; Rv0538
binding result (elastin (human lung)): no binding (tested: 5 µg/ml)
binding result (human collagen I): no binding (tested: 5 µg/ml)
binding result [1]: no binding (tested: 5 µg/ml)
binding result [2]: no binding (tested: 5 µg/ml)
binding result [3]: no binding (tested: 5 µg/ml)
binding result [4]: no binding (tested: 5 µg/ml)
binding result [5]: no binding (tested: 5 µg/ml)
binding result [6]: binds
